Measured values as given in US10995116B2, “Peptide-induced NK cell activation” (University of Southampton, priority 2014, dated 2021).
Read-outs that look alike come from different tables or passages of the source.

Columns and labels:
KIR2DS2 [1] = target: T1, KIR2DS2 (Homo sapiens, UniProt P43631); assay: pVav1/Vav1 Western blot, KIR2DS2-transfected NK cell line plus peptide-loaded HLA-C*0304:ICP47:721.221 cells; type: cell-based; set-up: expressed in transfected cells; host or cells: NKL cell line transfected with KIR2DS2; target cells L721.221-HLA-C*0304-ICP47; conditions: peptide 20 μM, 5 minutes
Experimental: FIG. 7 1×10^6 L721.221-HLA-C*0304-ICP47 cells were incubated overnight at 26° C. with indicated peptides at a concentration of 20 μM. The cells were then incubated with the NKL cell line transfected with KIR2DS2 or transfected with KIR2DL2 for 5 minutes. The cells were lysed in 1% NP-40 and then analysed by Western blotting using antibodies to pVav1 and then following stripping of the membrane to Vav1. Shown are Western blots around the 98 kDa region, and below them the corresponding densitometries for 2 independent experiments.
With reference to FIG. 7, 1×10^6 HLA-C*0304:ICP47:721.221 cells were incubated overnight at 26° C. with indicated peptides at a concentration of 20 μM. The cells were then incubated with the NK cell line transfected with KIR2DS2 for 5 minutes. The cells were lysed in 1% NP-40 and then analysed by Western blotting using antibodies to pVav1 and then following stripping of the membrane to Vav1. Shown is a Western blots around the 98kDa region, and below them the corresponding densitometries for 3 independent experiments.
Target sequence in this assay (P43631 22-304): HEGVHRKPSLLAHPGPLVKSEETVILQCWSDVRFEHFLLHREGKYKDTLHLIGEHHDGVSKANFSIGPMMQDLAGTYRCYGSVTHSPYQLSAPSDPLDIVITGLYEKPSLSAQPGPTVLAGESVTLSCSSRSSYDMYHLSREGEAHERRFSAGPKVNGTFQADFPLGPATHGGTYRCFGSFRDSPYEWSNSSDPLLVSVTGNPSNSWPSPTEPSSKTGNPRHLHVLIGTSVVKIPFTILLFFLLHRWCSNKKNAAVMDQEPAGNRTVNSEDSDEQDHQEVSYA

[2] = test system: NK cells expressing KIR2DS2; assay: pVav1/Vav1 Western blot, NK cell line transfected with KIR2DS2 or KIR2DL2 plus peptide-loaded L721.174 cells; type: cell-based; conditions: peptide 20 μM, 5 minutes
Experimental: (§1) FIG. 6 LNPSVAATL (SEQ ID NO: 1) activates NK cells expressing KIR2DS2. A. L721.174 cells were incubated with indicated peptides. The cells were then incubated with the NK cell line transfected with KIR2DS2. The cells were lysed and the KIR2DS2 was then immunoprecipitated from the mixture using the GL183 antibody coupled to protein-G beads. The immune precipitate was analysed by Western blotting using a phosphotyrosine antibody. The membrane was then stripped and reprobed with an antibody to DAP12 the molecule that transduces a positive signal from KIR2DS2. Shown are the regions on the blots at the level of DAP12 (12-15kDa). B. L721.174 cells were incubated with indicated peptides. The cells were then incubated with the NK cell line transfected with KIR2DS2 or transfected with KIR2DL2. The cells were lysed in 1% NP-40 and then analysed by Western blotting using antibodies to pVav1 and then following stripping of the membrane to Vav1. […]
(§2) With reference to FIG. 6A, 1×10^6 L721.174 cells were incubated overnight at 26° C. with indicated peptides at a concentration of 20 μM. […] The immune precipitate was analysed by Western blotting using a phosphotyrosine antibody. […] The cells were lysed in 1% NP-40 and then analysed by Western blotting using antibodies to pVav1 and then following stripping of the membrane to Vav1. […]

HLA-C*0102 = HLA-C*0102 (Homo sapiens, UniProt P10321, A176E/A330V/A35S/A97T/C350S/D114A/D33F/L171W/L180R/L218V/M285V/M309V/M331V/P208H/Q277E/Q291P/R121W/R243W/R30K/S123C/S140Y/S297R/T329A/T363A/V272M/V319A); assay: HPLC of HLA-C binding peptides eluted from 721.221 cells expressing HLA-C*0102:T2A:E19/3K:LNPSVAATL; conditions: peak in the eluate at the retention time of the control peptide
Experimental: FIG. 8 The MHC class I-negative 721.221 cell line was transfected with a construct expressing HLA-C*0102:T2A:E19/3K:LNPSVAATL (SEQ ID NO: 1). The cells were washed and then the HLA-C binding peptides eluted using 10% acetic acid. The eluate was analysed by HPLC using a C18 column and a 4-60% acetonitrile gradient. The resulting profile was compared to the profile of the LNPSVAATL (SEQ ID NO: 1) peptide alone. The peptide elution peak is indicated with an arrow.
The cell line 721.221 expressing HLA-C*0102:T2A:E19/3K:LNPSVAATL. Following elution of the HLA-C binding peptides using 10% acetic acid the peptides were analysed by HPLC using a C18 column and an acetonitrile gradient.

HLA-Cw*0102 [3] = target: T2, HLA-Cw*0102 (Homo sapiens, UniProt P10321, A176E/A330V/A35S/A97T/C350S/D114A/D33F/L171W/L180R/L218V/M285V/M309V/M331V/P208H/Q277E/Q291P/R121W/R243W/R30K/S123C/S140Y/S297R/T329A/T363A/V272M/V319A); assay: Peptide binding to HLA-Cw*0102: cell surface MHC class I staining of L721.174 cells by flow cytometry; type: cell-based; conditions: increasing peptide concentrations, overnight at 26° C.
Experimental: (§3) The HLA-Cw*0102-positive cell line L721.174 was incubated with increasing concentrations of the LNPSVAATL (SEQ ID NO: 1) peptide or a control peptide VAPWNSLSL (SEQ ID NO: 48). Cells were stained for cell surface of MHC class I and analysed by flow cytometry. The mean fluorescence intensity of cell surface MHC Class I was plotted against the peptide concentration.
as §3, with “With reference to FIG. 1, the HLA-Cw*0102-positive” for “The HLA-Cw*0102-positive”, “NO: 48) (known to bind HLA-Cw*0102) overnight at 26° C. 3×10^5 cells were used per condition. Following washing in PBS the cells” for “NO: 48). Cells”

DAP12 = DAP12 phosphorylation: KIR2DS2 immunoprecipitation and phosphotyrosine Western blot, NK cell line transfected with KIR2DS2 plus peptide-loaded L721.174 cells; type: cell-based; conditions: peptide 20 μM, 5 minutes
Experimental: as §1, §2

L721.174 cells = assay: Cytotoxicity of NK cell clones against peptide-loaded L721.174 cells (Live/Dead fixable far-red stain); type: cell-based; conditions: KIR2DS2-positive NK cell clones 4, 6, 9 only; not KIR2DS2-negative clone 27
Experimental: (§4) L721.174 cells were incubated in the presence or absence of the peptides VAPWNSFAL (SEQ ID NO: 49) and the LNPSVAATL (SEQ ID NO: 1). The cells were then labeled with the cell tracker orange dye, and then cultured with KIR2DS2-positive NK cell clones (clones 4,6,9) or a KIR2DS2-negative NK cell clone (clone 27). Cytotoxicity was then determined using Live/Dead® fixable far-red stain.
as §4, with “With reference to FIG. 3, 3×10^5 L721.174” for “L721.174”, “incubated at 26° C. overnight” for “incubated”, “cultured for four hours” for “cultured”

[4] = test system: NK cells from KIR2DS2-positive or KIR2DS2-negative donor; assay: CD107a (LAMP) degranulation of CH-L antibody positive NK cells cultured with peptide-loaded L721.174 cells; type: cell-based
Experimental: A. cells were incubated in the presence or absence of peptides, and then cultured with NK cells from either a KIR2DS2-positive or KIR2DS2-negative donor. The level of CD107a (LAMP) expression was measured on NK cells positive for the CH-L antibody. This antibody binds to KIR2DS2, KIR2DL2 and KIR2DL3. B. Summary data from 5 KIR2DS2-positive and 6 KIR2DS2-negative donors tested as per panel A of FIG. 2. To compare the different donors the data are normalized to 100% for the no peptide condition.
With reference to FIG. 2A, 3×10^5 L721.174 cells were incubated at 26° C. overnight in the presence or absence of peptides, and then cultured for four hours with NK cells from either a KIR2DS2-positive or KIR2DS2-negative donor. The level of CD107a (LAMP) expression was measured on NK cells positive for the CH-L antibody. This antibody binds to KIR2DS2, KIR2DL2 and KIR2DL3. […] With reference to FIG. 2B, summary data from 5 KIR2DS2-positive and 6 KIR2DS2-negative donors were tested as per panel A of FIG. 2. To compare the different donors the data are normalized to 100% for the no peptide condition.

KIR2DS2 [5] = target: T1, KIR2DS2; assay: KIR2DS2-PE tetramer staining of peptide-loaded L721.174 cells by flow cytometry; type: binding; set-up: made in house; conditions: peptide 200 μM overnight at 26° C.
Experimental: (SEQ ID NO: 1) peptide. A. The KIR2DS2 protein was expressed with a biotinylation C-terminal tag. Following biotinylation with the BirA enzyme, the KIR2DS2 protein was incubated with streptavidin-phycoerythrin to form fluorescent KIR2DS2-tetramers (KIR2DS2-PE). L721.174 cells were then incubated with indicated peptides. Cells were then stained with KIR2DS2-PE and analysed by flow cytometry. Shown are histogram plots. The bold numbers represent the mean fluorescent staining intensity of the KIR2DS2-PE staining of the cells in the presence of peptide and the non-bold numbers the staining in the absence of peptide. B. Represents the mean and standard error fluorescent intensities of the experiment in “A” following replicate experiments.
A. L721.174 cells were incubated with indicated peptides. Cells were then stained with KIR2DS2-PE (see FIG. 4) and analysed by flow cytometry. Shown are histogram plots. […]
With reference to FIG. 4A, the KIR2DS2 protein was expressed as a recombinant protein with a biotinylation C-terminal tag. […] Cells were then stained with KIR2DS2-PE and analysed by flow cytometry. […]
With reference to FIG. 5A, 3×10^5 L721.174 cells were incubated overnight at 26° C. with indicated peptides at a concentration of 200 μM. Cells were then stained with KIR2DS2-PE (see FIG. 4) and analysed by flow cytometry. […]
Target sequence in this assay (P43631 22-245 limits assumed): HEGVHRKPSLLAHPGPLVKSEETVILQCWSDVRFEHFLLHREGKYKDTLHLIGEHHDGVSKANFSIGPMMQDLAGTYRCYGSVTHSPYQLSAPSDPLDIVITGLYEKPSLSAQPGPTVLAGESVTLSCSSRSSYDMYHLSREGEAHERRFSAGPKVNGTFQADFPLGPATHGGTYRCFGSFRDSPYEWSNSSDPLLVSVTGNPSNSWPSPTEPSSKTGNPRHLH

HLA-Cw*0102 [6] = target: T2, HLA-Cw*0102; conditions: control peptide, stated as known; cited from earlier work

In the case of GAVPDLATL (listed as Homo sapiens), the “activation of KIR2DS2 (pVav1)” value (KIR2DS2 [1]) is reported as “Activated”.

For GAVPDLAWL (listed as Homo sapiens), the “activation of KIR2DS2 (pVav1)” value (KIR2DS2 [1]) was “Activated”.

For LNPSVAATL (listed as Homo sapiens), the “activation of NK cells expressing KIR2DS2” value [2] was “Activates”, the “endogenous processing and presentation from construct” value (HLA-C*0102) was “endogenously processed and presented” and the “binding to HLA-Cw*0102” value (HLA-Cw*0102 [3]) was “Binds”. For the same sequence, the “phosphorylation of DAP12” value (DAP12) was “induces phosphorylation of DAP12”, the “killing of L721.174 cells as compared to no peptide or the VAPWNSFAL peptide” value (L721.174 cells) was “killed the L721.174 cell line to greater extent” and the “level of CD107a degranulation as compared to no peptide” value ([4]; NK cells from KIR2DS2-positive donors) was “higher levels of degranulation”. The “level of CD107a degranulation as compared to the VAPWNSFAL peptide alone” value ([4]; NK cells from KIR2DS2-positive donors, LNPSVAATL in combination with VAPWNSFAL) was “higher levels of degranulation” and the “KIR2DS2 binding to HLA-C*0102 and peptide (KIR2DS2-PE staining)” value (KIR2DS2 [5]) was “Binds”.

In the case of “VAPWNSFAL (listed as Homo sapiens) [reference compound]”, the “level of CD107a degranulation as compared to no peptide” value ([4]; NK cells from both donors (KIR2DS2-positive and KIR2DS2-negative)) is reported as “lower levels of degranulation”.

In the case of VAPWNSLSL (listed as Homo sapiens), the “binding to HLA-Cw*0102” value (HLA-Cw*0102 [6]) is given as “known to bind”.
